Test results from patent US20050176083.

T1: human factor VIIIa, P00451
T1 chain: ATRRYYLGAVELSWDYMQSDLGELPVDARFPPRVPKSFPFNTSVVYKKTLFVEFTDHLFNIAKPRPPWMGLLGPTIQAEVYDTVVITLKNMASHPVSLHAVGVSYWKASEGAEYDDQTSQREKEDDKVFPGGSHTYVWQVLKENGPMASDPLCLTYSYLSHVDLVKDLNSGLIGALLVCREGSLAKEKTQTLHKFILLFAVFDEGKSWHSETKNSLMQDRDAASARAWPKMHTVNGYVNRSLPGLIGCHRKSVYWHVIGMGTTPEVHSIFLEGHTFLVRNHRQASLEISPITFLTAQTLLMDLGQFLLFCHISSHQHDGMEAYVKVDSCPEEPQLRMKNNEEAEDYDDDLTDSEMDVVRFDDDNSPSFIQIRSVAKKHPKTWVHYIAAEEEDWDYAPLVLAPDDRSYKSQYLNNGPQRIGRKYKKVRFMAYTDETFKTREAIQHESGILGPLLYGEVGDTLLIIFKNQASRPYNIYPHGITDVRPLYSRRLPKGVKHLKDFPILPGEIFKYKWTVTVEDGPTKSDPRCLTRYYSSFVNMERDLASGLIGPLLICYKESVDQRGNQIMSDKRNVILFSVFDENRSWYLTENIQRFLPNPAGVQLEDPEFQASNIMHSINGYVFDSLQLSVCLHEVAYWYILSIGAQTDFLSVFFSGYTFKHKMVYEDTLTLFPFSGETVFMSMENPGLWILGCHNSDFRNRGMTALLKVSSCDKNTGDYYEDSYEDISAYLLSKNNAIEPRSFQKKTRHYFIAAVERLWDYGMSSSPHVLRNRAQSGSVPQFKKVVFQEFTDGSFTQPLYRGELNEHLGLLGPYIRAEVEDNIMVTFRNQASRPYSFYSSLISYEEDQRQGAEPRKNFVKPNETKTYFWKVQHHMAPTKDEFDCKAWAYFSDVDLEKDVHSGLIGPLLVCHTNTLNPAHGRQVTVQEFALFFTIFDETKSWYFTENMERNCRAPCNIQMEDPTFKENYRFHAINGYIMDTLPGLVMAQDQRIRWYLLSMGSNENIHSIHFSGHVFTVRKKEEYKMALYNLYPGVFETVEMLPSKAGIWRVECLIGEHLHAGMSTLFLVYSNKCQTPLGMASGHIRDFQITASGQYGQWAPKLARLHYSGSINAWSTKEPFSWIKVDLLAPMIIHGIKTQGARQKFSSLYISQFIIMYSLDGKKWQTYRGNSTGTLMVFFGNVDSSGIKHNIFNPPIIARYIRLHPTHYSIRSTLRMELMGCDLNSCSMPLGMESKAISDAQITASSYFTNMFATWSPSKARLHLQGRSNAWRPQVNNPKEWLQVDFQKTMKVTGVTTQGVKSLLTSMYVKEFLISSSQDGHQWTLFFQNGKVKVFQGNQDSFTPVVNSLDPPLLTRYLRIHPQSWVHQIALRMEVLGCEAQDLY

B1: wild-type bovine activated protein C (recombinant, thrombin-activated) (protein)
chain 1: ANSFLEELRPGNVERECSEEVCEFEEAREIFQNTEDTMAFWSKYSDGDQCEDRPSGSPCDLPCCGRGKCIDGLGGFRCDCAEGWEGRFCLHEVRFSNCSAENGGCAHYCMEEEGRRHCSCAPGYRLEDDHQLCVSKVTFPCGRLGKRMEKKRKTL
chain 2: IVDGQEAGWGESPWQAVLLDSKKKLVCGAVLIHVSWVLTVAHCLDSRKKLIVRLGEYDMRRWESWEVDLDIKEVIIHPNYTKSTSDNDIALLRLAKPATLSQTIVPICLPDSGLSERKLTQVGQETVVTGWGYRDETKRNRTFVLSFIKVPVVPYNACVHAMENKISENMLCAGILGDPRDACEGDSGGPMVTFFRGTWFLVGLVSWGEGCGRLYNYGVYTKVSRYLDWIYGHIKAQEAPLESQVP
B2: wild-type human activated protein C (recombinant, thrombin-activated) (protein)
chain 1: ANSFLEELRHSSLERECIEEICDFEEAKEIFQNVDDTLAFWSKHVDGDQCLVLPLEHPCASLCCGHGTCIDGIGSFSCDCRSGWEGRFCQREVSFLNCSLDNGGCTHYCLEEVGWRRCSCAPGYKLGDDLLQCHPAVKFPCGRPWKRMEKKRSHL
chain 2: LIDGKMTRRGDSPWQVVLLDSKKKLACGAVLIHPSWVLTAAHCMDESKKLLVRLGEYDLRRWEKWELDLDIKEVFVHPNYSKSTTDNDIALLHLAQPATLSQTIVPICLPDSGLAERELNQAGQETLVTGWGYHSSREKEAKRNRTFVLNFIKIPVVPHNECSEVMSNMVSENMLCAGILGDRQDACEGDSGGPMVASFHGTWFLVGLVSWGEGCGLLHNYGVYTKVSRYLDWIHGHIRDKEAPQKSWAP

What was measured:
[1] = molecular target: bovine factor Va (in bovine plasma), Q28107
Chain of bovine factor Va (in bovine plasma), Q28107 (Q28107 29-2211): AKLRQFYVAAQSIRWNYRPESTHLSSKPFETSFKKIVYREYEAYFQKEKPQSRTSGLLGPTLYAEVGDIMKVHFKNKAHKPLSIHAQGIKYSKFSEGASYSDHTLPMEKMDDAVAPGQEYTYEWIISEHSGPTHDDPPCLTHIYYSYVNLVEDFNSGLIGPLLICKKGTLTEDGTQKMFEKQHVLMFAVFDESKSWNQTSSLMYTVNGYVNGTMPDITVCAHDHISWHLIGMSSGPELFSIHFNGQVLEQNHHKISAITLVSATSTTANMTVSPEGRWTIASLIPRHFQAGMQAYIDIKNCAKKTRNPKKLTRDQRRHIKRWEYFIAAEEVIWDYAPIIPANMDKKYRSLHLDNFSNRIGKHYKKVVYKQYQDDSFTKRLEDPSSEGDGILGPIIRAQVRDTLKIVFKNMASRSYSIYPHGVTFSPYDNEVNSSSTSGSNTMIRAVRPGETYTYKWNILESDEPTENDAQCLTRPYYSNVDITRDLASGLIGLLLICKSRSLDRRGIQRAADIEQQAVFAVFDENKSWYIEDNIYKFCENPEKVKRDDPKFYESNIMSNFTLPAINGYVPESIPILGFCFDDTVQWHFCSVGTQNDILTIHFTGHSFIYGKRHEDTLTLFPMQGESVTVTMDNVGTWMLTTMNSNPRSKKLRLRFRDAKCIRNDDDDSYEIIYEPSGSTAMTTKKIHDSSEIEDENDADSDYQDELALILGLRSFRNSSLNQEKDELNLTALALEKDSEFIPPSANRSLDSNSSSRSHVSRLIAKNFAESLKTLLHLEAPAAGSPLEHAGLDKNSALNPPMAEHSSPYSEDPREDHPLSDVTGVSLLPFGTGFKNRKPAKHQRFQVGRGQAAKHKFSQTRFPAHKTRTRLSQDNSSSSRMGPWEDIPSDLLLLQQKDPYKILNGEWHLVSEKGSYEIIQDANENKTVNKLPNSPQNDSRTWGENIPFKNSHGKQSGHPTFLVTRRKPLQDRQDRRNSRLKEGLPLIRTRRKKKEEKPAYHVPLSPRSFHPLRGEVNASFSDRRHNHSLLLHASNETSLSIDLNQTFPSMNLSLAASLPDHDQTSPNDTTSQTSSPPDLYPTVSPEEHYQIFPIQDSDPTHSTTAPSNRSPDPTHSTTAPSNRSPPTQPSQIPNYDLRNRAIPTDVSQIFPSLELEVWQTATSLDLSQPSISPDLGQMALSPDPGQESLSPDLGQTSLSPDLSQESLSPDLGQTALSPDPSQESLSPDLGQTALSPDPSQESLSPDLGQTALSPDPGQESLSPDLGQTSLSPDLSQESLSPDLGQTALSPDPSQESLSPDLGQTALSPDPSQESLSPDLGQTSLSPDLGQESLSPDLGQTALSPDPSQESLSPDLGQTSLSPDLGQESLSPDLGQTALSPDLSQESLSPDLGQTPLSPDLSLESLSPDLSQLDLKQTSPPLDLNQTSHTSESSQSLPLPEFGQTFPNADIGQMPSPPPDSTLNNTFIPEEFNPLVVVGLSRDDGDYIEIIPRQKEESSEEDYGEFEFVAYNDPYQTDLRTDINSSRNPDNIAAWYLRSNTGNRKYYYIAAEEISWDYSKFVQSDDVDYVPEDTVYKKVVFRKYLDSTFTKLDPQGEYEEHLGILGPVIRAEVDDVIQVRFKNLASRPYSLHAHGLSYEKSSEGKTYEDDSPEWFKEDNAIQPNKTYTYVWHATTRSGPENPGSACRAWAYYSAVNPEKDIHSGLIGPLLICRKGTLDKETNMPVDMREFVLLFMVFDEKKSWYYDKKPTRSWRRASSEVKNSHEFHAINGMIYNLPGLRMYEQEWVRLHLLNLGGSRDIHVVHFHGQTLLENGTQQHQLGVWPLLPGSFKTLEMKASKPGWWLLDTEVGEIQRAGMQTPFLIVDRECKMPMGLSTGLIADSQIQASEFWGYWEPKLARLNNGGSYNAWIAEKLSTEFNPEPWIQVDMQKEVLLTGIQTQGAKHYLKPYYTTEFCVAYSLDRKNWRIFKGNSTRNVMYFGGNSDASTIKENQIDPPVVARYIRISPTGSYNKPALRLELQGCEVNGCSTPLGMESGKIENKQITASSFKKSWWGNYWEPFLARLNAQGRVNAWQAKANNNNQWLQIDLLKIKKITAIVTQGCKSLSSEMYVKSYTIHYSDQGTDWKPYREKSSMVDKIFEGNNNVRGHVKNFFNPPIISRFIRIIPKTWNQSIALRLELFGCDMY

[2] = molecular target: T1, human factor VIIIa, P00451
[3] = molecular target: human factor Va (normal, from human plasma), P12259
Chain of human factor Va (normal, from human plasma), P12259 (P12259 29-2224): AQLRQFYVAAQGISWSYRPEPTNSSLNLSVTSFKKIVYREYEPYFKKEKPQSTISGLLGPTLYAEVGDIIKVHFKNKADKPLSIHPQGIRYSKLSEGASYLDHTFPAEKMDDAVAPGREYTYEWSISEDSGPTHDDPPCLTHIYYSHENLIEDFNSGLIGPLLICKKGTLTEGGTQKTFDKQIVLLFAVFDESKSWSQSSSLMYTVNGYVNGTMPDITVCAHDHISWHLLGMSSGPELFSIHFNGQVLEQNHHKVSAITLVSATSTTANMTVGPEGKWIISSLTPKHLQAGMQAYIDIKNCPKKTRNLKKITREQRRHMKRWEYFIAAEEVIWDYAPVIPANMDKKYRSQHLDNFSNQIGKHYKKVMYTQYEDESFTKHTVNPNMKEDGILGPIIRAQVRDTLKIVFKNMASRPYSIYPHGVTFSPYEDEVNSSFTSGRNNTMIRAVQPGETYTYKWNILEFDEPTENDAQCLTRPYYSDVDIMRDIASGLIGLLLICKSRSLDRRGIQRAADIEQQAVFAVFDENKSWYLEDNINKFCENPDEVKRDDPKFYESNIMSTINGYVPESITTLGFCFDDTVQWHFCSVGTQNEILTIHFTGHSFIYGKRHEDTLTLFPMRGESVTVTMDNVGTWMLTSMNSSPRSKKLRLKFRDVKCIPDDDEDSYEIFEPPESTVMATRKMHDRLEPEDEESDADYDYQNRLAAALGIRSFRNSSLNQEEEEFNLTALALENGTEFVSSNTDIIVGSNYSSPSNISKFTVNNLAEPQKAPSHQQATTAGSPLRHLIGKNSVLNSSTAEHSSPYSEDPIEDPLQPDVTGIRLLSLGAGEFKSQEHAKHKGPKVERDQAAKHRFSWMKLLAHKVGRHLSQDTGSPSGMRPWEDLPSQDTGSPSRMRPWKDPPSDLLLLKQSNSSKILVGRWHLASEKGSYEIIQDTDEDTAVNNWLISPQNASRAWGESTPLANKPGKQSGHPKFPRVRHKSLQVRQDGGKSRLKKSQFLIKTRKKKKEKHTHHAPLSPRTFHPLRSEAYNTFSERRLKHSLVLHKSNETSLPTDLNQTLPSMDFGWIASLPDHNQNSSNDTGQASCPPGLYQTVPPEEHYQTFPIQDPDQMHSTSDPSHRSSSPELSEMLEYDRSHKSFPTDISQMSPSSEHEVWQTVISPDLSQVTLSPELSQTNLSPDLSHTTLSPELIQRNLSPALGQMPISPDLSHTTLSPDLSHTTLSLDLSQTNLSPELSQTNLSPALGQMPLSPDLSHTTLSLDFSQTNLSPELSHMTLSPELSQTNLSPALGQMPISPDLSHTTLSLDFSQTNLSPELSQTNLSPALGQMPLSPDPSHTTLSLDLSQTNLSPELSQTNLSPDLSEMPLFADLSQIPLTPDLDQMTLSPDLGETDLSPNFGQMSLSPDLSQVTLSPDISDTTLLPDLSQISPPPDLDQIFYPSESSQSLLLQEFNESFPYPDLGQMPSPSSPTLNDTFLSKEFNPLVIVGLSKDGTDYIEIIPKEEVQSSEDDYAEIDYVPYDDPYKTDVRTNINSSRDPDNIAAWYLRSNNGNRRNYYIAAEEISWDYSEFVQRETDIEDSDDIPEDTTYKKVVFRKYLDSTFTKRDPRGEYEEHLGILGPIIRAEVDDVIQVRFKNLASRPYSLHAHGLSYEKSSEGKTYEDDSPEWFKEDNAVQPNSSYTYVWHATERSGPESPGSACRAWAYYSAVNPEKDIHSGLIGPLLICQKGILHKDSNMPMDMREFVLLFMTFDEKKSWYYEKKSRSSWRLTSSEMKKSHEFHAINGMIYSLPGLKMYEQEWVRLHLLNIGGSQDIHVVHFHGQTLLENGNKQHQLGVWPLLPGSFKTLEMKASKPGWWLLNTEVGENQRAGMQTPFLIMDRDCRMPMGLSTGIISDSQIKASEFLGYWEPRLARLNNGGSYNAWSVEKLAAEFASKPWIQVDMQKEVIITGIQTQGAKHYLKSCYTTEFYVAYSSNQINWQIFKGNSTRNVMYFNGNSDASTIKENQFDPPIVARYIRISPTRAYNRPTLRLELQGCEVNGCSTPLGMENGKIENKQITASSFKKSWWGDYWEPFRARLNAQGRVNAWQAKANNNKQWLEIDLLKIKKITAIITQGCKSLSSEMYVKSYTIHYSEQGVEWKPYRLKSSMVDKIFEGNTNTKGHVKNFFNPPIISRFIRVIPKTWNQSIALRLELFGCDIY

[4] = molecular target: Q506 mutant human factor Va (FVa Leiden), P12259
Chain of Q506 mutant human factor Va (FVa Leiden), P12259 (P12259 other isoform, or with tags, fused parts or gaps mutant): as the sequence (P12259 29-2224) above, with R506Q counted along it

Protein	prothrombin time (PT) assay, clotting time in bovine plasma [1]	factor VIIIa inactivation assay (FXa formation, S-2222) with human protein S and factor V [2]	factor VIIIa inactivation assay with bovine protein S and bovine factor V [2]	factor VIIIa inactivation assay with human protein S and factor V, low APC concentrations [2]	prothrombin time (PT) assay, clotting time in human plasma [3]	remaining FVa activity over time (prothrombinase assay); plasma FVa, 0.4 nM APC, phospholipid vesicles [4]	remaining FVa activity over time (prothrombinase assay, S2238); 0.76 nM plasma FVa, 0.39 nM APC, phospholipid vesicles [3]
B1	wild-type bovine APC and its mutant expressed only weak anticoagulant acitivity in bovine plasma	the activity of factor VIIIa was inactivated by all APC's from section (2)(i) above but high concentrations were needed	able to inhibit factor VIIIa activity in the presence of bovine protein S and bovine factor V; worked more efficiently than wild-type human APC and human APC-SP	At low concentrations, neither bovine wild-type APC nor bovine APC-SP could inactivate factor VIIIa	Neither wild-type bovine APC nor bovine APC-SP had any effect in human plasma		
B2	wild-type human APC and human APC-SP efficiently prolong clotting time in bovine plasma	the activity of factor VIIIa was inactivated by all APC's from section (2)(i) above but high concentrations were needed	able to inhibit factor VIIIa activity in the presence of bovine protein S and bovine factor V		Both wild-type human APC and human APC-SP increased clotting times essentially in this PT assay	The addition of wt APC resulted in a slow decrease in FVa activity corresponding to cleavage at Arg306	initial rapid loss of FVa activity that is observed during the first 5 minutes of incubation; slow decrease in FVa activity observed between 5 minutes and 25 minutes of incubation
